This note sets out measurements from paper PMC314469, “Protein Interaction Networks by Proteome Peptide Scanning” (PLoS Biology, 2004).

Sho1 SH3 (SHO1_YEAST), P40073, sequence (P40073 295-366): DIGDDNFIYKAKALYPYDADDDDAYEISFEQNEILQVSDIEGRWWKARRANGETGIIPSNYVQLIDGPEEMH

For one experiment, the target named is T1, Yhr016c SH3 (YSC84_YEAST), P32793.
T1 chain: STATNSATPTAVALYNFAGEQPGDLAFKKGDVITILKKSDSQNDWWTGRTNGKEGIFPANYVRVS
Kind of experiment: SPOT array.
Turning to FSKKKEAPEDPKNL [YNL231C 5-18], the normalised SPOT signal, Boehringer light units (BLU); mean over the file's lines of this peptide turned out to be 21.7.
With FSTKKSKPIRPFVF [YMR259C 335-348], the normalised SPOT signal, Boehringer light units (BLU); mean over the file's lines of this peptide amounted to 66.2.
On the same count and under the same terms, to FQYTKGRPLAPKGA [YGL009C 253-266] belongs 42.6.
On the same count and under the same terms, to FRPHRLAPSAPATK [YOL113W 305-318] belongs 109.
On the same count and under the same terms, with FQPQRTAPKPPISA [YNL298W 451-464] the figure was 21.1.
FQDYRSSPWSPSRS [YLR169W 87-100] registered a normalised SPOT signal, Boehringer light units (BLU); mean over the file's lines of this peptide of 221.

The target of a further experiment is T2, Rvs167 SH3 (RV167_YEAST), P39743.
T2 chain: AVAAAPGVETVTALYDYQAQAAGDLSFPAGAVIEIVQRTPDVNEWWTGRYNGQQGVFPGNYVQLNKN
Briefly: SPOT array.
Regarding FSKKKEAPEDPKNL [YNL231C 5-18], the normalised SPOT signal, Boehringer light units (BLU); mean over the file's lines of this peptide is 66.9.
The same measure, in the same setting: to FSTKKSKPIRPFVF [YMR259C 335-348] belongs 228; to FQYTKGRPLAPKGA [YGL009C 253-266], 22.3.
On to FRPHRLAPSAPATK [YOL113W 305-318], for which the normalised SPOT signal, Boehringer light units (BLU); mean over the file's lines of this peptide stood at 228.
Same read-out and setting: with FQPQRTAPKPPISA [YNL298W 451-464] the figure was 148; with FQDYRSSPWSPSRS [YLR169W 87-100], 575.

In the next experiment the target is T3, Boi1 SH3 (BOI1_YEAST), P38041.
T3 chain: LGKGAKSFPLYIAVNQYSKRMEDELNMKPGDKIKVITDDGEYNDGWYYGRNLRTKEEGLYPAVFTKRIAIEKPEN
Briefly: SPOT array.
In turn, FSKKKEAPEDPKNL [YNL231C 5-18] returned a normalised SPOT signal, Boehringer light units (BLU); mean over the file's lines of this peptide of 56.7.
Same read-out and setting: with FSTKKSKPIRPFVF [YMR259C 335-348] the figure was 267.
On the same count and under the same terms, with FQYTKGRPLAPKGA [YGL009C 253-266] the figure was 59.6; with FRPHRLAPSAPATK [YOL113W 305-318], 9160; with FQPQRTAPKPPISA [YNL298W 451-464], 4820.
In turn, FQDYRSSPWSPSRS [YLR169W 87-100] gave a normalised SPOT signal, Boehringer light units (BLU); mean over the file's lines of this peptide of 33700.

For the next experiment, the target named is T4, Boi2 SH3 (BOI2_YEAST), P39969.
T4 chain: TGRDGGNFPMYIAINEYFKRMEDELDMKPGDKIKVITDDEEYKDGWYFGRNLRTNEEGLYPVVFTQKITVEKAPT
Kind of experiment: SPOT array.
On to FSKKKEAPEDPKNL [YNL231C 5-18], for which the normalised SPOT signal, Boehringer light units (BLU); mean over the file's lines of this peptide came to 18.3.
In turn, FSTKKSKPIRPFVF [YMR259C 335-348] registered a normalised SPOT signal, Boehringer light units (BLU); mean over the file's lines of this peptide of 30.8.
The same measure, in the same setting: with FQYTKGRPLAPKGA [YGL009C 253-266] the figure was 14.9; with FRPHRLAPSAPATK [YOL113W 305-318], 26; with FQPQRTAPKPPISA [YNL298W 451-464], 19.6.
Still for that read-out and setting: with FQDYRSSPWSPSRS [YLR169W 87-100] the figure was 314.

The next experiment addresses Sho1 SH3 (SHO1_YEAST), P40073. Kind of experiment: SPOT array.
FSKKKEAPEDPKNL [YNL231C 5-18] registered a normalised SPOT signal, Boehringer light units (BLU); mean over the file's lines of this peptide of 42.3.
On the same count and under the same terms, to FSTKKSKPIRPFVF [YMR259C 335-348] belongs 182; to FQYTKGRPLAPKGA [YGL009C 253-266], 66.9.
On the same count and under the same terms, to FRPHRLAPSAPATK [YOL113W 305-318] belongs 44.7.
FQPQRTAPKPPISA [YNL298W 451-464] registered a normalised SPOT signal, Boehringer light units (BLU); mean over the file's lines of this peptide of 39.8.
On the same count and under the same terms, to FQDYRSSPWSPSRS [YLR169W 87-100] belongs 953.

The target in another experiment is T5, Myo5 SH3 (MYO5_YEAST), Q04439.
T5 chain: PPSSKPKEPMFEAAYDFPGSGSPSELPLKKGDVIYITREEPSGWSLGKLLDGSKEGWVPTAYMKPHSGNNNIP
Briefly: SPOT array.
Molecule FSKKKEAPEDPKNL [YNL231C 5-18] displayed a normalised SPOT signal, Boehringer light units (BLU); mean over the file's lines of this peptide of 148.
On the same count and under the same terms, to FSTKKSKPIRPFVF [YMR259C 335-348] belongs 378; to FQYTKGRPLAPKGA [YGL009C 253-266], 235.
Still for that read-out and setting: to FRPHRLAPSAPATK [YOL113W 305-318] belongs 1410.
Same read-out and setting: to FQPQRTAPKPPISA [YNL298W 451-464] belongs 88300.
The molecule FQDYRSSPWSPSRS [YLR169W 87-100] displayed a normalised SPOT signal, Boehringer light units (BLU); mean over the file's lines of this peptide of 264.

A further experiment has as its target T6, Yfr024 SH3 (LSB3_YEAST), P43603.
T6 chain: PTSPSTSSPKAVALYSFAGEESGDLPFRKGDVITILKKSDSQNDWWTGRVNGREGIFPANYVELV
Briefly: SPOT array.
Take FSKKKEAPEDPKNL [YNL231C 5-18]: the normalised SPOT signal, Boehringer light units (BLU); mean over the file's lines of this peptide worked out at 13.4.
Same read-out and setting: to FSTKKSKPIRPFVF [YMR259C 335-348] belongs 864; to FQYTKGRPLAPKGA [YGL009C 253-266], 190; to FRPHRLAPSAPATK [YOL113W 305-318], 1010.
The same measure, in the same setting: to FQPQRTAPKPPISA [YNL298W 451-464] belongs 379.
Still for that read-out and setting: with FQDYRSSPWSPSRS [YLR169W 87-100] the figure was 548.
